Laboratory results from US20250154262A1.

What was measured:
hFcγRIIIa-V158 (human) [1] = biological target: hFcγRIIIa-V158 (human) (UniProt P08637); test: SPR (Carterra LSA), captured on protein A/G, hFcγRIIIa-V158 injected, 1:1 fit [Cont. 7]
hFcγRIIIa-V158 (human) [2] = biological target: hFcγRIIIa-V158 (human) (UniProt P08637); test: SPR (Carterra LSA), captured on protein A/G, hFcγRIIIa-V158 injected, 1:1 fit
hFcγRIIIa-V158 (human) [3] = biological target: hFcγRIIIa-V158 (human) (UniProt P08637); test: SPR (Carterra LSA), protein AG capture
hFcγRIIIa-V158 (human) [4] = biological target: hFcγRIIIa-V158 (human) (UniProt P08637); test: SPR (Carterra LSA), captured on protein A/G, hFcγRIIIa-V158 injected, 1:1 fit [Cont. 3]
hFcγRIIIa-V158 (human) [5] = biological target: hFcγRIIIa-V158 (human) (UniProt P08637); test: SPR, further study
hFcγRIIIa-V158 (human) [6] = biological target: hFcγRIIIa-V158 (human) (UniProt P08637); test: SPR (Carterra LSA), captured on protein A/G, hFcγRIIIa-V158 injected, 1:1 fit [Cont. 5]

Chain of hFcγRIIIa-V158 (human) (P08637 17-208 F176V limits assumed): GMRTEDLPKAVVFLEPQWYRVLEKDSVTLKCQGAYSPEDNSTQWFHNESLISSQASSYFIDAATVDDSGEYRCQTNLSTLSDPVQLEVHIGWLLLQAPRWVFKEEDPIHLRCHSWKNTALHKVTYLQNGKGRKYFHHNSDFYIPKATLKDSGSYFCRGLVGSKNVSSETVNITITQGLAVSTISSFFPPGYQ

| Substance | Kd (hFcγRIIIa-V158 (human) [3]) | Kd (hFcγRIIIa-V158 (human) [5]) | Fold Change vs. WT (hFcγRIIIa-V158 (human) [5]) | koff (hFcγRIIIa-V158 (human) [5]) | kon (hFcγRIIIa-V158 (human) [5]) | further results |
| --- | --- | --- | --- | --- | --- | --- |
| WT (from UniProt P01857 1-330) (antibody) | 289 nM | 477 nM | – | – | – | Kd (hFcγRIIIa-V158 (human) [1]): 350 nM; Kd (hFcγRIIIa-V158 (human) [2]): 350 nM; Kd (hFcγRIIIa-V158 (human) [4]): 290 nM |
| H268D_A330Y_D376V (antibody) | 87.6 nM | 152 nM | – | – | – | – |
| H268D, S298A (antibody) | – | 95.7 nM | – | – | – | – |
| adalimumab (antibody) | – | – | – | – | – | Kd (hFcγRIIIa-V158 (human) [1]): 190 nM; Kd (hFcγRIIIa-V158 (human) [6]): 310 nM |
| H268D_L314T (antibody) | 83 nM | 125 nM | 3.8 fold | 0.0481 s⁻¹ | 384000 M⁻¹ s⁻¹ | Fold-change relative to WT (hFcγRIIIa-V158 (human) [3]): 3.5 fold; koff (hFcγRIIIa-V158 (human) [3]): 0.026 s⁻¹; kon (hFcγRIIIa-V158 (human) [3]): 314000 M⁻¹ s⁻¹ |

Continued, in another order:

| Kd (hFcγRIIIa-V158 (human) [3]) | Kd (hFcγRIIIa-V158 (human) [5]) | Fold Change vs. WT (hFcγRIIIa-V158 (human) [5]) | koff (hFcγRIIIa-V158 (human) [5]) | kon (hFcγRIIIa-V158 (human) [5]) | Substance | further results |
| --- | --- | --- | --- | --- | --- | --- |
| – | 80.1 nM | 6 fold | 0.0311 s⁻¹ | 389000 M⁻¹ s⁻¹ | H268D, A330F, S298A (antibody) | – |
| – | 46.8 nM | 10.2 fold | 0.0217 s⁻¹ | 465000 M⁻¹ s⁻¹ | H268D, L314T, S298A (antibody) | – |
| – | 82.6 nM | 5.8 fold | 0.0273 s⁻¹ | 332000 M⁻¹ s⁻¹ | H268D, Y373W, S298A (antibody) | – |
| 24.6 nM | 60.8 nM | 7.8 fold | 0.0279 s⁻¹ | 509000 M⁻¹ s⁻¹ | H268D_L251Q_L314M_S298A (antibody) | Fold-change relative to WT (hFcγRIIIa-V158 (human) [3]): 11.8 fold; koff (hFcγRIIIa-V158 (human) [3]): 0.0125 s⁻¹; kon (hFcγRIIIa-V158 (human) [3]): 509000 M⁻¹ s⁻¹ |
| 31.1 nM | 55 nM | – | – | – | H268D_L251Q_S298A (antibody) | – |
